In article PMC4485566:

How the values were obtained:
[1] = target: His79 (UniProt position 85, YIPGTHMAFGG); assay: UV-vis; settings: ferric protein implied, His79-mediated alkaline transition
[2] = target: His73 (UniProt position 79, LTNPKHYIPGT); assay: UV-vis; settings: ferric protein implied (alkaline transition); cited from earlier work

iso-1-cytochrome c, WT*/K79H variant (Saccharomyces cerevisiae; K72A;K79H;C102S)
pKa ([1]; cited from earlier work): 6.35 ± 0.04

iso-1-cytochrome c, yWT/K73H variant (Saccharomyces cerevisiae; K73H)
pKa [2]: 6.60 ± 0.06

iso-1-cytochrome c, yWT/K79H variant (Saccharomyces cerevisiae; K79H)
pKa [1]: 6.62 ± 0.08
